Data as given in publication PMC8913689.

Target: HA-metabotropic glutamate receptor 3, Q14832
Assay: AFM single-molecule force spectroscopy (AFM-SMFS); living WTT-CHO cells transfected with 1 µg of HA-GPCR vector, basal state, 37 °C; anti-HA antibody on the AFM tip pulls the HA-receptor out of the membrane; unfolding distances fitted by a Gaussian mixture (BIC) and each population assigned to an oligomeric state by the receptor's theoretical …
Conditions: remark: other sources report otherwise

- stoichiometry N: 2
B1: HA-metabotropic glutamate receptor 3, Q14832 23-879 (receptor)
chain: LGDHNFLRREIKIEGDLVLGGLFPINEKGTGTEECGRINEDRGIQRLEAMLFAIDEINKDDYLLPGVKLGVHILDTCSRDTYALEQSLEFVRASLTKVDEAEYMCPDGSYAIQENIPLLIAGVIGGSYSSVSIQVANLLRLFQIPQISYASTSAKLSDKSRYDYFARTVPPDFYQAKAMAEILRFFNWTYVSTVASEGDYGETGIEAFEQEARLRNICIATAEKVGRSNIRKSYDSVIRELLQKPNARVVVLFMRSDDSRELIAAASRANASFTWVASDGWGAQESIIKGSEHVAYGAITLELASQPVRQFDRYFQSLNPYNNHRNPWFRDFWEQKFQCSLQNKRNHRRVCDKHLAIDSSNYEQESKIMFVVNAVYAMAHALHKMQRTLCPNTTKLCDAMKILDGKKLYKDYLLKINFTAPFNPNKDADSIVKFDTFGDGMGRYNVFNFQNVGGKYSYLKVGHWAETLSLDVNSIHWSRNSVPTSQCSDPCAPNEMKNMQPGDVCCWICIPCEPYEYLADEFTCMDCGSGQWPTADLTGCYDLPEDYIRWEDAWAIGPVTIACLGFMCTCMVVTVFIKHNNTPLVKASGRELCYILLFGVGLSYCMTFFFIAKPSPVICALRRLGLGSSFAICYSALLTKTNCIARIFDGVKNGAQRPKFISPSSQVFICLGLILVQIVMVSVWLILEAPGTRRYTLAEKRETVILKCNVKDSSMLISLTYDVILVILCTVYAFKTRKCPENFNEAKFIGFTMYTTCIIWLAFLPIFYVTSSDYRVQTTTMCISVSLSGFVVLGCLFAPKVHIILFQPQKNVVTHRLHLNRFSVSGTGTTYSQSSASTYVPTVCNGREVLDSTTSSL
